The supplement of paper PMC10567573

B1: PCDHGA10 (parent)
chain: FGIEIEVTDINDNAPKFQAENLDV

Variants of: B1
Experiment: protein stability index of a GFP-peptide fusion (GPS, HEK-293T) (PSI 1-6); higher = more stable
Details: c terminus: a fixed tail appended
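Note: lentivirally expressed fusions sorted by FACS into six bins by GFP to DsRed ratio, PSI derived from sequencing read proportions per bin multiplied by bin number.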

Protein stability index, by site and new letter:
F1: L 3.05; T 4.93; K 4.39; E 4.8; Y 3.52; P 5.08; N 4.69; D 4.71; G 4.49; C 3.59; S 4.75; R 4.17; A 4.72; M 3.52; W 2.54
F17: N 4.15; V 3.65; P 4.03; S 3.98; A 4.12; I 3.37; T 4.14; G 3.94; E 4.81; H 4.28
N13: Q 3.21; E 3.35; F 1.84; A 2.85; K 3.12; T 3.1; W 1.54; V 2.27; R 2.67; D 3.43; L 1.91; M 2.08; G 2.99; C 2.52; H 2.36; I 2.66; Y 1.78; S 2.48
P15: R 3.36; T 3.41; C 2.5; W 2.05; A 3.37; N 3.6; L 2.41; E 3.24; V 2.55; F 1.84; G 3.52; K 3.51; M 2.66; I 2.25
E6: K 2.77; I 2.05; C 1.58; M 1.41; H 2.19; R 1.7; N 3.02; P 4.08; F 2.43; A 3.25; L 1.86; T 1.98; V 2.04; Q 2.39; Y 2.23; W 2.9; G 3.56
L22: H 3.4; F 2.66; Y 2.83; P 3.36; R 3.7; C 3.27; V 3.42; W 2.53; A 3.34; T 3.65; I 3.02; M 2.84; E 4.39
D12: A 2.28; L 1.49; C 1.8; P 2.42; F 1.94; T 1.99; I 1.84; E 3.13; K 2.98; Y 1.56; R 2.48; N 2.15; H 2.16; S 2.25; G 2.58
Q18: N 3.25; P 2.41; E 3.33; A 2.88; T 2.77; W 1.93; H 2.93; D 3.56; S 2.1; R 2.08; L 2.26; Y 1.53; G 2.94; F 1.68; V 2.54; C 2.44
V24: T 3.47; L 3.43; H 3.6; M 2.5; I 2.56; Y 2.93; P 3.4; S 3.5; A 3.48; W 2.81; G 3.7; K 3.52
I3: Y 3.84; G 4.73; D 4.76; W 3.62; C 4.43; M 3.96; N 4.68; Q 4.79; V 3.65; A 4.52; K 4.73; S 5.2; L 4.08; E 5.11
E4: Y 1.73; T 2.12; Q 2.47; D 3.44; W 2.5; G 3.42; S 2.5; H 2.2; K 2.11; C 2.6; N 3.34; R 2.18
A19: I 2.26; C 2.59; S 2.62; K 3.37; N 2.82; P 2.6; W 1.59; V 2.37; L 2; H 3.18; E 3.83
N21: M 2.42; V 2.33; E 3.46; P 2.6; Y 1.73; T 2.89; A 2.49; G 2.83; I 1.84; S 2.54; H 2.82; K 3.25; R 2.07; D 3.65; L 2.13
I10: D 4.78; F 2.4; T 3.28; E 4.23; Y 2.81; P 3.83; H 4.04; G 3.67; K 4.61; C 3.4
G2: V 1.64; N 1.9; S 1.92; H 2.18; Y 3; T 1.78; F 1.86; C 2; P 4.63; Q 2.09; I 2.57; R 1.49; L 2.17; D 2.72; E 1.88; A 2.02; K 1.52
A14: E 3.83; W 1.67; H 2.79; P 2.69; K 3.1; Q 3.58; Y 1.71; C 2.46; R 2.83; L 1.98; I 2.49
T8: P 3.75; L 1.89; K 3.33; Y 1.17; N 3.81; Q 2.78; D 3.79; E 3.32; I 1.76; S 2.77; V 2.08; H 2.78; F 1.68
E20: D 2.82; G 2.11; S 2.71; T 2.34; L 1.33; A 2.15; N 2.27; P 2.13; C 1.61; M 2.06; I 2.72; F 2.51; Q 2.4; K 2.08; H 2.02
V7: E 4.74; G 4.3; N 4.46; T 4.45; D 5.46; P 4.72; M 3.18; W 1.78; R 4.14; C 3.75; L 2.45; F 2.25; A 4.33; H 4.74; K 4.21; Q 4.8; Y 2.93
D9: E 2.69; Q 2.15; R 2.04; K 2.45; C 1.95; F 2.69; H 1.81; V 2.58; N 2.73; S 1.85; P 2.53; I 1.32
K16: W 1.72; I 2.48; S 2.52; T 2.91; N 2.94; D 3.46; R 3.02; F 2.21; Y 2.18; A 2.53; Q 3.35; M 3.07; V 2.64; G 3.56
N11: V 2.3; Y 1.76; D 3.54; I 2.04; H 2.41; C 2.28; S 2.84; G 2.66; Q 2.52; P 2.73; L 1.77; F 1.33; T 2.26; R 2.73; M 2.15
I5: S 5.39; N 5.05; P 5.13; Q 4.71; D 4.58; V 3.48; G 5.02; C 4.28; W 3.05; E 5.17; K 4.92; Y 3.85; T 5.08; L 3.94
D23: N 2.85; Y 1.69; R 1.93; V 2.56; L 2.17; A 2.3; I 1.93; Q 2.42; C 1.82; P 2.32; S 2.06; T 1.95; E 2.59; W 1.46
